Assay [1] deals with GPC3 expressed on hepatoma cells (HepG2, Huh-7, SK-Hep-1 GPC3) (human, UniProt P51654 25-554). Briefly: cell-based or functional assay.
The target of assay [2] is T1, His-tagged human GPC3 recombinant protein (purchased from Shanghai Rui Jin Biotech Co., Ltd.) (human, UniProt P51654 25-559, limits assumed).
T1 construct: Bought; construct not described; not shown: His tag
The experiment in a line: flow cytometry of CAR T cells stained with His-tagged human GPC3 (50 ug/ml), anti-His-tag antibody and FITC secondary. The method, then: Infected CTL cells were detected by flow cytometry on day 8 of culture for the expression of different chimeric antigen receptors. FACS assays were performed using His-tagged human GPC3 recombinant protein (purchased from Shanghai Rui Jin Biotech Co., Ltd.); the cells were firstly incubated with the protein (50 ug/ml) for 1 hr, washed twice with D-PBS, and Anti-His-tag antibody (1:50 dilution, purchased from Shanghai Reagent Biotechnology Co., Ltd.) was added and incubated for 1 hr and then washed twice with D-PBS and then FITC labeled goat anti-mouse secondary antibody (Shanghai Kangcheng Biotechnology Co., Ltd.), incubated for 50 min, washed with D-PBS for three times, and tested by FACS. Uninfected T lymphocytes was used as a negative control, the positive rates of virus-infected T cells expressing different chimeric antigen receptors are shown in Table 4.

Assay [3] deals with T2, BSA (bovine serum albumin), negative control protein (bovine, UniProt P02769 25-607).
T2 construct: Coated as negative control in the single phage ELISA
Briefly: single phage ELISA, BSA coated 100 ng/well. The method, then: (§1) 96 clones were randomly selected in the clones obtained from the fourth round of screening and their binding capability to human GPC3 was analyzed by single phage ELISA (enzyme-linked immunosorbent assay). For this purpose, each single colony was inoculated in 300 μl of 2×YT/ampicillin medium (containing 2% glucose) in a 96-well deep-well plate and cultured with shaking at 37° C. and 250 rpm for 16 hours. 20 μl of culture was inoculated into 500 μl of 2×YT/ampicillin medium (containing 0.1% glucose) and shaken at 37° C. and 250 rpm for 1.5 hours. To prepare the helper phage solution, 75 μl of M13KO7 (titer of 3×10¹² pfu/ml) was taken and mixed into 15 ml of 2×YT medium and added into a culture plate at 50 μl/well, and incubated at 37° C. and 150 rpm for 30 minutes. And then prepared kanamycin solution (180 μl of 50 mg/ml kanamycin was taken and added into 15 ml of 2×YT medium) was added at 50 μl/well and incubated with shaking for 16 hours at 37° C. and 250 rpm. Finally, cells were precipitated by centrifugation (30 mins, 5000×g, 4° C.) and the supernatant was transferred to a new 96-well deep-well plate.
(§2) For single phage ELISA, 100 ng/well of antigen GPC3 and negative control protein BSA (100 μl/well) were used in a 96-well MediSorp ELISA plate (purchased from Nunc) and coated overnight at 4° C. […] Extinction values were measured at 450 nm with an enzyme-linked immunosorbent (Bio-Rad).
In general terms: An ELISA detects its analyte on a solid surface through an enzyme-linked reagent.

The target of assay [4] is T3, human GPC3 recombinant protein (purchased from Shanghai Rui Jin Biotechnology Co., Ltd.) (human, UniProt P51654 25-559, limits assumed).
T3 construct: Bought recombinant protein; also called huGPC3; antigen GPC3
The experiment in a line: single phage ELISA, GPC3 coated 100 ng/well. How it is done:
as §1, §2

T2 sequence (P02769 25-607 limits assumed): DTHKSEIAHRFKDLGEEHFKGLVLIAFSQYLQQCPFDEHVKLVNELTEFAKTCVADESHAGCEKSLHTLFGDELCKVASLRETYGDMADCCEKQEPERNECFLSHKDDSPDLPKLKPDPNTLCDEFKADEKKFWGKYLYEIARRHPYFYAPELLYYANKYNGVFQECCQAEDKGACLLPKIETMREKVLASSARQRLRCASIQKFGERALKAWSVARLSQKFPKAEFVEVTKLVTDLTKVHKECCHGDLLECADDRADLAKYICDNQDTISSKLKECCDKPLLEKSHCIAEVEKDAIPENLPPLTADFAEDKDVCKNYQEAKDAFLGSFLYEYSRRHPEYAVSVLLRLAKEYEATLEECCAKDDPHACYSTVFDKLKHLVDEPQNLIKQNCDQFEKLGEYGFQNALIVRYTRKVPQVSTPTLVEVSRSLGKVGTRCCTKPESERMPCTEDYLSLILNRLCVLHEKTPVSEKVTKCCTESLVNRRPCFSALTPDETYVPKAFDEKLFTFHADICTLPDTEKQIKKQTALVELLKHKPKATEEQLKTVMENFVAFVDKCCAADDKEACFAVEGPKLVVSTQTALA

B1: chimeric antigen receptor P7D4-δZ (P7D4 scFv-CD8-CD3δzeta), on T cells (other)
chain: QVQLQESGGGLVQPGRSLRLSCAASGFTFSSYAMHWVRQAPGKGLEWVSAISGSGGSTYYADSVKGRFTISRDNSKNTLYLQMNSLRAEDTAVYYCAKDRRGSHADAFDVWGQGTLVTVSSGGGGSGGGGSGGGGSQSALTQPPSASGSPGQSVTISCTGTSSDVGGYNYVSWYQQYPGKAPKLLIYGNSNRPSGVPDRFSGSKSGTSASLAITGLQAEDGADYYCQSYDSSLRVVFGGGTKVTVLGTTTPAPRPPTPAPTIASQPLSLRPEACRPAAGGAVHTRGLDFACDIYIWAPLAGTCGVLLLSLVITRVKFSRSADAPA
notes: Chimeric antigen receptor on lentivirus-infected human T cells; negative control without ITAM; also called P7D4-8Z; P7D4 scFv-δZ
For B1, in assay [1], the “Cytotoxicity (%) on HepG2 cells, effector target ratio 1:1 (LDH release, 18 h); signalling-dead negative control CAR” value amounted to 2.5%; the “Cytotoxicity (%) on HepG2 cells, effector target ratio 1:3 (LDH release, 18 h); signalling-dead negative control CAR” value came out at 3.2%; the “Cytotoxicity (%) on HepG2 cells, effector target ratio 3:1 (LDH release, 18 h); signalling-dead negative control CAR” value is 4.8%; the “Cytotoxicity (%) on HuH-7 cells, effector target ratio 1:1 (LDH release, 18 h); signalling-dead negative control CAR” value is 1.3%. In addition, in assay [1], the “Cytotoxicity (%) on HuH-7 cells, effector target ratio 1:3 (LDH release, 18 h); signalling-dead negative control CAR” value was 5.3% and the “Cytotoxicity (%) on HuH-7 cells, effector target ratio 3:1 (LDH release, 18 h); signalling-dead negative control CAR” value was determined as 3.2%. The “Positive rate of T cells transfection” value in assay [2] stood at 59%.

B2: chimeric antigen receptor P7D4-BBZ (P7D4 scFv-CD8-CD137-CD3 zeta), on T cells (other)
chain: QVQLQESGGGLVQPGRSLRLSCAASGFTFSSYAMHWVRQAPGKGLEWVSAISGSGGSTYYADSVKGRFTISRDNSKNTLYLQMNSLRAEDTAVYYCAKDRRGSHADAFDVWGQGTLVTVSSGGGGSGGGGSGGGGSQSALTQPPSASGSPGQSVTISCTGTSSDVGGYNYVSWYQQYPGKAPKLLIYGNSNRPSGVPDRFSGSKSGTSASLAITGLQAEDGADYYCQSYDSSLRVVFGGGTKVTVLGTTTPAPRPPTPAPTIASQPLSLRPEACRPAAGGAVHTRGLDFACDIYIWAPLAGTCGVLLLSLVITLYCKRGRKKLLYIFKQPFMRPVQTTQEEDGCSCRFPEEEEGGCELRVKFSRSADAPAYKQGQNQLYNELNLGRREEYDVLDKRRGRDPEMGGKPRRKNPQEGLYNELQKDKMAEAYSEIGMKGERRRGKGHDGLYQGLSTATKDTYDALHMQALPPR
notes: Second generation CAR on human T cells; also called P7D4 scFv-BBZ
For the molecule B2, in assay [1], the “Cytotoxicity (%) on HepG2 cells, effector target ratio 1:1 (LDH release, 18 h)” value worked out at 38.6%; the “Cytotoxicity (%) on HepG2 cells, effector target ratio 1:3 (LDH release, 18 h)” value amounted to 13.9%; the “Cytotoxicity (%) on HepG2 cells, effector target ratio 3:1 (LDH release, 18 h)” value turned out to be 71.3%; the “Cytotoxicity (%) on HuH-7 cells, effector target ratio 1:1 (LDH release, 18 h)” value came out at 32.2%. In addition, in assay [1], the “Cytotoxicity (%) on HuH-7 cells, effector target ratio 1:3 (LDH release, 18 h)” value was 10.2% and the “Cytotoxicity (%) on HuH-7 cells, effector target ratio 3:1 (LDH release, 18 h)” value was 69.2%. The “Positive rate of T cells transfection” value in assay [2] was 53%.

B3: single chain antibody P1B12E (phage-displayed scFv) (scFv)
scFv: QVQLVESGAEVKKPGASVKVSCKASGGTFSSYAISWVRQAPGQGLEWMGGIIPIFGTANYAQKFQGRVTITADESTSTAYMELSSLRSEDTAVYYCAKSPFSGTPGEYWGRGTLVTVSSGGGGSGGGGSGGGGSEIVLTQSPGTLSLSPGERATLSCRASQSVSSNYLAWYQQKPGQAPRLLIYGASRRATGIPDRFSGSGSGTDFTLTISRVEPEDFAVYHCQQYGASPKTFGQGTKLEIKR
notes: Tested as single phage (M13, phagemid pCantab 5E) culture supernatant in ELISA; the phage coat fusion is not described
Turning to B3, the figures for the binding result in assay [3] and in assay [4] were “no binding” and “binds”, respectively.

B4: single chain antibody P7D4 (phage-displayed scFv) (scFv)
scFv: QVQLQESGGGLVQPGRSLRLSCAASGFTFSSYAMHWVRQAPGKGLEWVSAISGSGGSTYYADSVKGRFTISRDNSKNTLYLQMNSLRAEDTAVYYCAKDRRGSHADAFDVWGQGTLVTVSSGGGGSGGGGSGGGGSQSALTQPPSASGSPGQSVTISCTGTSSDVGGYNYVSWYQQYPGKAPKLLIYGNSNRPSGVPDRFSGSKSGTSASLAITGLQAEDGADYYCQSYDSSLRVVFGGGTKVTVLG
notes: Tested as single phage (M13, phagemid pCantab 5E) culture supernatant in ELISA
Turning to B4, the values for the binding result in assay [3] and in assay [4] were “no binding” and “binds”, respectively.

The record behind these values is US20240342305A1 (published 2024).
